Laboratory results reported in the supplement of paper PMC9170038.

Assays:
MS2 coat protein [1] = experiment: apparent KD of MS2 coat protein; higher = weaker reporter binding; conditions: Eterna round: R107
Description: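 RNA-MaP round R107: designed RNA switches with theophylline, tryptophan, arginine or FMN aptamers are transcribed on-chip within common flanks. They are titrated with SNAP-549-labelled MS2 coat protein in RNA-MaP buffer (100 mM Tris pH 7.5, 80 mM KCl, 4 mM MgCl2), without ligand or with the indicated ligand. Median apparent KD per design.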

MS2 coat protein [2] = experiment: apparent KD of MS2 coat protein; designed switch direction (-1 OFF switch, 1 ON switch): 1; higher = weaker reporter binding
Summary of the method: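 Transcription of designed RNA switches on Illumina chips was done by stalled E. coli RNA polymerase. SNAP-549-labelled MS2 coat protein was then titrated in doubling steps from 0.7 or 1.5 nM to 3 µM, with steps of 0.8–1.5 h at the lowest and 10–20 min at the highest concentration. The per-design median over clusters of curve-fitted normalised fluorescence is reported as apparent KD.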

[3] = input ligand: theophylline 20 uM
[4] = input ligand: tryptophan 2.4 mM
[5] = input ligand: theophylline 2 mM
[6] = input ligand: microRNA oligo, concentration not stated
[7] = Eterna round: R95, input ligand: FMN 200 uM
[8] = Eterna round: R95, input ligand: microRNA oligo, concentration not stated
[9] = Eterna round: R95, input ligand: none

| Sequence | apparent KD of MS2 coat protein (MS2 coat protein [1]; input ligand: arginine 13.2 mM) [µM] | apparent KD of MS2 coat protein (MS2 coat protein [1]; [3]) [µM] | apparent KD of MS2 coat protein (MS2 coat protein [1]; [4]) [µM] | apparent KD of MS2 coat protein (MS2 coat protein [1]; input ligand: none) [µM] | apparent KD of MS2 coat protein (MS2 coat protein [1]; [5]) [µM] | other results |
| --- | --- | --- | --- | --- | --- | --- |
| UUUAAAAUAACAGAUACCAGCGUGUUAUAAAACAUGAGGAUCACCCAUGUAGUGAUCAAGCGCCCUUGGCAGCUGGUAUUUUAGG [7.E] | 0.186 | 0.161 | 0.132 |  |  |  |
| UGAAAGUAGGGAAGGAGCGCUACAACAUGAGGAUCACCCAUGUUAUGAGGAUCACCCAUGUGGCAGGUAGGUCGCCCAAAACAUG [Same State Arginine B] | 0.0413 | 0.0951 | 0.068 | 0.077 | 0.0927 |  |
| CCUAUGCAGUCGGCCGCCACUGUACAUGAGGAUCACCCAUGUUCUAAUAUAAUAAGAACUGAAAUCAGGACCGGGACUGUAUAGG [Ex Tryptophan B 2] | 1.66 | 0.0278 | 0.0193 | 0.0201 | 0.0197 |  |
| UGUUUGGUGCGCGAGUGUUGGAUGAUUGAUACCAGUGAAGAAGAGCGCCCUUGGCAGCGAAUCCUAACAUGAGGAUCACCCAUGU [5.V] | 0.0393 | 0.0577 | 0.0514 |  |  |  |
| UUUUUUAACUGAAGGAGCGUCACAUGAGGAUCACCCAUGUAUUAGAUGAGAAGGAUCUUGUGGCAGGUAGGUCGCAGAGGAAGGG [e-argB-V] | 0.0996 | 0.187 | 0.136 | 0.389 | 0.181 |  |
| GGAAGGACAGUUGAUACCAGUUUCAAAGGCGGUAAUCACUACAUGAGGAUCACCCAUGUCAACCCUUGGCAGCAAUAGACCGUGG [theeternabot_exclusion_MS2_Theo_B_6] | 0.024 | 0.0281 | 0.0192 |  |  |  |
| CCAUAGCUAGGAAGGAGCGCAUACUUCACAUGAGGAUCACCCAUGUCGAGACGUGAGUCAGUGCAGGUAGGUCGCCUAGCUAUGG [Same State - Arginine B (Freestyle 29)] | 0.0181 | 0.0242 | 0.0206 | 0.0186 | 0.0255 |  |
| AGAAUAUAAUAUAUCAAAGGUAUAACCGAAGGAGCGCCGAAUAAGGCAGGUAGGUCGCGGAAACAUGAGGAUCACCCAUGUCCAU [Arginine A Same State; Euphoria Solution 2] | 0.019 | 0.0236 | 0.0187 | 0.0191 | 0.0166 |  |
| UUAUUUAUAAUGGAUACCAGUAUAAUGGCCGCAAAUCCUGACAUGAGGAUCACCCAUGUAUGCCCUUGGCAGCUGUUAUGGGUUU [XTheo B #23] | 0.0347 | 0.0512 | 0.0387 |  |  |  |
| CAAUACGUAACUGAUACCAGUGUACUGACAUGAGGAUCACCCAUGUUGGGUUUUGUUGUACACCCUUGGCAGCAGAAUCGUAUUG [AstrosExyTheB#11] | 0.0467 | 0.0794 | 0.0663 |  |  |  |
| GACCCAUGAGUUGUAAAAGCUCAUGGGUCGCGAGGACCGGUACGGCCGCCACUCGGCUGUACAUGAGGAUCACCCAUGUCAGGGU [#1 Same State - Tryptophan A Attempt #27 (HarryS)] | 0.0448 | 0.568 |  |  | 0.527 |  |
| GGAAUAACGAUUGAUACCAGCAUGUUAACAUGAGGAUCACCCAUGUUAAGGAUAACAUAAUGCCCUUGGCAGCAACGGAAACCCG [#23Same State - Theophylline B] | 0.0163 | 0.0192 | 0.0178 |  |  |  |
| GACCACAUGAGGAUCACCCAUGUCUUGGUCCGAGGACCGGUACGGCCGCCACUCGAGAGCCGUACAAAUAAACGGAGUGCCAUCA [theeternabot_sameState_MS2_Trp_A_31] | 0.0125 | 0.0196 |  |  | 0.0155 |  |
| AAACAUGAGGAUCACCCAUGUGCUCCUGUCCGAGGACCGGUACGGCCGCCACUCGGUUCUCGGGAGGAUGGUCAAAGACUAUCCA [Omei Trp A SS B v10] | 0.0607 | 0.0447 | 0.0488 | 0.0506 | 0.0578 |  |
| CCGUUCUCUGCGGCCGCCACUCAAGGAGCUACAUAGCUCCUAGACAUGAGGAUCACCCAUGUCGCGAGGACCGGGUAGAUUCUCC [Same State Typptophan B GF9] | 0.0344 | 0.0636 |  |  | 0.0642 |  |
| AUAUGGCGAGAUGAUACCAGACACAUGAGGAUCACCCAUGUUGAUGGUAAGUCUGCAUAUGUCCCUUGGCAGCAUAGCGACAUAU [X-TheoB-ms2@23] | 0.00863 | 0.0119 | 0.00834 |  |  |  |
| GGGUAAGAUCCGGAUACCAGCGAACAUGAGGAUCACCCAUGUGACCUAAGAUAGGCUAAACGCCCUUGGCAGCCGAAAUAGCGUU [Same State Theophylline B GF 5] | 0.0249 | 0.043 | 0.0395 | 0.0364 | 0.0382 |  |
| AUGGUAGGACAGCACAUAUAAGCUUGUGAUACCAGCUAGAAAACUAGCCCUUGGCAGCACAUUACAUGAGGAUCACCCAUGUCCC [EThA NP+V+V2 #1] | 0.0441 | 0.0686 | 0.05 |  |  |  |

| Sequence | apparent KD of MS2 coat protein (MS2 coat protein [1]; input ligand: arginine 13.2 mM) [µM] | apparent KD of MS2 coat protein (MS2 coat protein [1]; [3]) [µM] | apparent KD of MS2 coat protein (MS2 coat protein [1]; [4]) [µM] | apparent KD of MS2 coat protein (MS2 coat protein [1]; input ligand: none) [µM] | apparent KD of MS2 coat protein (MS2 coat protein [1]; [5]) [µM] | other results |
| --- | --- | --- | --- | --- | --- | --- |
| ACAUGAGGAUCACCCAUGUGAUGGCGCGAUACCAGCUGAUCCCGUGGCCCUUGGCAGCGUCCGGUGUGGUCCGGCGGGUGGGACG [khkmullin] | 0.0914 | 0.0317 | 0.0242 | 0.0208 | 0.031 |  |
| GGCACAUAGUCGGCCGCCACUAGAAUAUAGUGGAAUAACAUGAGGAUCACCCAUGUAUUUGGGACUAGGACCGGGACUAUGUGCC [Bear] | 0.0332 | 0.0419 | 0.0202 | 0.0337 | 0.0422 |  |
| CUAUUGAUAGCGGCCGCCACUUACUCAUGAGGUAACAACAUGAGGAUCACCCAUGUUUGAGGAUCAAGGACCGGGCUAUUGAUAG [AstrosSSTryB#13] | 0.03 | 0.0339 | 0.0238 | 0.0276 | 0.0309 |  |
| ACGAUAGCACCUGAGGAUCACCCAGGUGAUACCAGCCUGGAAACAGGCCCUUGGCAGCACCUAAAAUAAAGGUAACUAUCGAAUA [TheoAX6 #MicroSwitchBubble #AlternativeMS2] | 0.0573 | 0.251 | 0.0486 | 0.0506 | 0.105 |  |
| ACAUGAGGAUCACCCAUGUAGCCUAGGGAAGGAGCGGCGUAAGAGCCAGGUAGGUCGCCCGCAUGAGGAUCACCCAUGUCGAGGG [Same State Arginine A GF10] | 0.0309 | 0.0409 | 0.0293 | 0.038 | 0.0331 |  |
| UGACAUUGCUCAGAUACCAGACAUGAGGAUCACCCAUGUACCAAGGUAAAGAAAUAACGUGUCCCUUGGCAGCUGAGCAAUGUCU [TheoBX 1 #MS2Left #Theo2] | 0.0106 | 0.0148 | 0.0104 |  |  |  |
| AUAAUAUAGACGGCCGCCACUAUAAACAUGAGGAACAUGAGGAUCACCCAUGUAUGAGGAUCACCUAGGACCGGGUCAUAUAUUA [AstrosExyTryB#2] | 0.0393 | 0.0798 |  |  | 0.0624 |  |
| AAUCAUAACUGAAGGAGCGUCUAUAUUACAUGAGGAUCACCCAUGUUUAUAUGGUAUUAUAGACAGGUAGGUCGCAGAUUUUUUA [JR_SSArginiB_Sub017] | 0.0207 | 0.0216 | 0.0158 | 0.0168 | 0.0187 |  |
| GAUGAUAUUGCAGAUACCAGACACAUGAGGAUCACCCAUGUGUCCUCGCCAGCGGCAUGUGUCCCUUGGCAGCUGCGAUAUCAUC [Colombia] | 0.0111 | 0.0177 | 0.0121 | 0.0111 | 0.0412 |  |
| GAGCUGAUGUAGAGCGAAUAUUCGAGAGAUACCAGUACAGAAAUGUACCCUUGGCAGCUCAACUUUACAUGAGGAUCACCCAUGU [Ex Theophylline A 23] | 0.015 | 0.0156 | 0.0147 |  |  |  |
| GGUAGGUUACUACCAAUCACAUGAGGAUCACCCAUGUUUUGGGAGGAUAUGGUACCUAUUUGGUACCAGAAGGCCUUAUUAAUU [Fiskers NG3ss - 12] (Eterna round: R96, puzzle: Same State NG 3) |  |  |  |  |  | apparent KD of MS2 coat protein (MS2 coat protein [2]; input ligand: FMN 200 uM): 0.0636 µM; apparent KD of MS2 coat protein (MS2 coat protein [2]; [6]): 0.0362 µM; apparent KD of MS2 coat protein (MS2 coat protein [2]; input ligand: none): 0.0653 µM |
| CACAAUCUAUCUGAGGAUAUCAUGAAAAAAACAUGAGGAUCACCCAUGUGCAGGAAAACUGCAUAUGAGAAGGCAGAUAGAUUGU [salish99_SS2_r3_015] (puzzle: Same State 2) |  |  |  |  |  | apparent KD of MS2 coat protein (MS2 coat protein [2]; [7]): 0.0283 µM; apparent KD of MS2 coat protein (MS2 coat protein [2]; [8]): 0.72 µM; apparent KD of MS2 coat protein (MS2 coat protein [2]; [9]): 0.913 µM |
| GAGUAGGAGUUACAGGAUAUAUGGAGGAGGACAUGAGGAUCACCCAUGUGAGAGAUGAGAGGAGGAUAGAAGGGUAAGGGAGUAA [JR_SS2_Sub028] (puzzle: Same State 2) |  |  |  |  |  | apparent KD of MS2 coat protein (MS2 coat protein [2]; [7]): 0.024 µM; apparent KD of MS2 coat protein (MS2 coat protein [2]; [8]): 0.0206 µM; apparent KD of MS2 coat protein (MS2 coat protein [2]; [9]): 0.0462 µM |
| GUGGUCAGACAUGAGGAUCACCCAUGUGGAAUAAAUAAGGGACAGGAUAUUCAAUAUAGGAUAUAGAAGAAGGGUUGGUUGGUG (Eterna round: R96, puzzle: Same State NG 3) |  |  |  |  |  | apparent KD of MS2 coat protein (MS2 coat protein [2]; [6]): 0.104 µM |
| UAGUGAUUGCAAGGAUAUGCUAGUUUUUAUUUGUGUUUGAUAACAAACAUGAGGAUCACCCAUGUGCAGAAGGUGCUAGAUAUG [JR_SSNG2_Sub079] (Eterna round: R96, puzzle: Same State NG 2) |  |  |  |  |  | apparent KD of MS2 coat protein (MS2 coat protein [2]; [6]): 0.348 µM |
| AAUUAAUUAAUUAAUAUACAUGAGGAUCACCCAUGUAAGAUCAAGGAUAUCAGCUCGAUUAGAGCUGAGAAGGUGAUCACAUGU [SSNG3/16-A2] (Eterna round: R96, puzzle: Same State NG 3) |  |  |  |  |  | apparent KD of MS2 coat protein (MS2 coat protein [2]; [6]): 0.207 µM |
| UUUAGUUGCGGGCAGGAUAUGUAUUAAAAUACAUGAGGAUCACCCAUGUGAGGUCAUAACGACCUACAGAAGGGCCAAUCGCGAC [Laonerce - 15] (puzzle: Same State 2) |  |  |  |  |  | apparent KD of MS2 coat protein (MS2 coat protein [2]; [7]): 0.0172 µM; apparent KD of MS2 coat protein (MS2 coat protein [2]; [8]): 0.0644 µM; apparent KD of MS2 coat protein (MS2 coat protein [2]; [9]): 0.0861 µM |
